To fix the notation:
T1: Axl protein (human, UniProt P30530 26-451)
T1 construct: extracellular domain; also called human Axl; hAxl
T1 sequence (looked up): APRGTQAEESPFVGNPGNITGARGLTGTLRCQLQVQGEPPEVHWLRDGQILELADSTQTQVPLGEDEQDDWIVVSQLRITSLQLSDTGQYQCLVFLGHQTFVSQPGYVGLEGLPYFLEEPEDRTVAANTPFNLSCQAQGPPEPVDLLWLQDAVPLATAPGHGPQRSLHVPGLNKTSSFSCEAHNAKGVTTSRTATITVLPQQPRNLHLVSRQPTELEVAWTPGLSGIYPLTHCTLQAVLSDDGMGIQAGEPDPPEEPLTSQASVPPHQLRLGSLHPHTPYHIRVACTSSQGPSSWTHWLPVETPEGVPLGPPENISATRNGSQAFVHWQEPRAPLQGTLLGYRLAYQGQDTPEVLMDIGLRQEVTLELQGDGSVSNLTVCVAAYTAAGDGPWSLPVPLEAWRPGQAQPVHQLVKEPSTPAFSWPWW

B1: HC-T030A (antibody, V domains shown)
VH: EVQLVQSGAEVKKPGATVKISCKVSGYSFAGHTMNWIRQPPGKGLEWIGLIKPSNGGTSYNQKFKGRVTISADKSISTAYLQWSSLKASDTAMYYCAHGHYESYFAMDYWGQGTLVTVSS
VL: DIQMTQSPSSLSASVGDRVTITCKASQDVSSAVAWYQQKPGQAPRLLIYWASTRHTGVPSRFSGSGSGTEFTLTISSLQPDDFATYYCQEHFSTPLTFGQGTKVEIK
B2: HC-S103Q (antibody, V domains shown)
VH: B1 VH with A30T, S103Q
VL: B1 VL
B3: HC-E102N (antibody, V domains shown)
VH: B1 VH with A30T, E102N
VL: B1 VL
B4: HC-H100W (antibody, V domains shown)
VH: B1 VH with A30T, H100W
VL: B1 VL
B5: HC-E102Y (antibody, V domains shown)
VH: B1 VH with A30T, E102Y
VL: B1 VL
B6: HC-E102A (antibody, V domains shown)
VH: B1 VH with A30T, E102A
VL: B1 VL
B7: HC-S059T (antibody, V domains shown)
VH: B1 VH with A30T, S59T
VL: B1 VL
B8: HC-H100D (antibody, V domains shown)
VH: B1 VH with A30T, H100D
VL: B1 VL
B9: HC-E102D (antibody, V domains shown)
VH: B1 VH with A30T, E102D
VL: B1 VL
B10: HC-S103M (antibody, V domains shown)
VH: B1 VH with A30T, S103M
VL: B1 VL
B11: HC-E102F (antibody, V domains shown)
VH: B1 VH with A30T, E102F
VL: B1 VL
B12: HC-N035I (antibody, V domains shown)
VH: B1 VH with A30T, N35I
VL: B1 VL
B13: HC-S059I (antibody, V domains shown)
VH: B1 VH with A30T, S59I
VL: B1 VL
B14: HC-S103N (antibody, V domains shown)
VH: B1 VH with A30T, S103N
VL: B1 VL
B15: HC-Y104C (antibody, V domains shown)
VH: B1 VH with A30T, Y104C
VL: B1 VL
B16: HC-H100P (antibody, V domains shown)
VH: B1 VH with A30T, H100P
VL: B1 VL
B17: HC-S103D (antibody, V domains shown)
VH: B1 VH with A30T, S103D
VL: B1 VL
B18: HC-Y104P (antibody, V domains shown)
VH: B1 VH with A30T, Y104P
VL: B1 VL
B19: HC-Y101N (antibody, V domains shown)
VH: B1 VH with A30T, Y101N
VL: B1 VL
B20: HC-E102L (antibody, V domains shown)
VH: B1 VH with A30T, E102L
VL: B1 VL
B21: HC-Y104E (antibody, V domains shown)
VH: B1 VH with A30T, Y104E
VL: B1 VL
B22: HC-P053N (antibody, V domains shown)
VH: B1 VH with A30T, P53N
VL: B1 VL
B23: HC-H100R (antibody, V domains shown)
VH: B1 VH with A30T, H100R
VL: B1 VL
B24: HC-F105S (antibody, V domains shown)
VH: B1 VH with A30T, F105S
VL: B1 VL
B25: HC-F105N (antibody, V domains shown)
VH: B1 VH with A30T, F105N
VL: B1 VL
B26: HC-T033I (antibody, V domains shown)
VH: B1 VH with A30T, T33I
VL: B1 VL
B27: HC-E102R (antibody, V domains shown)
VH: B1 VH with A30T, E102R
VL: B1 VL
B28: HC-W110H (antibody, V domains shown)
VH: B1 VH with A30T, W110H
VL: B1 VL
B29: HC-E102I (antibody, V domains shown)
VH: B1 VH with A30T, E102I
VL: B1 VL
B30: HC-H100E (antibody, V domains shown)
VH: B1 VH with A30T, H100E
VL: B1 VL
B31: HC-E102V (antibody, V domains shown)
VH: B1 VH with A30T, E102V
VL: B1 VL

Residue numbers refer to the chain shown, from its start. In names and notes the source's numbering stands.

For the first assay, the target named is T1, Axl protein. Briefly: ELISA, 1:3 dilution, pH 6.0 over pH 7.4.
With B1, the “Affinity ELISA CPE mutant ratio (1:3, pH 6.0/7.4)” value was found to be 1.29 ratio.

In the case of B2, the “Affinity ELISA CPE mutant ratio (1:3, pH 6.0/7.4)” value stood at 0.912 ratio.

In the case of B3, the “Affinity ELISA CPE mutant ratio (1:3, pH 6.0/7.4)” value was determined as 1.52 ratio.

As for B4, the “Affinity ELISA CPE mutant ratio (1:3, pH 6.0/7.4)” value was found to be 4.94 ratio.

For the molecule B5, the “Affinity ELISA CPE mutant ratio (1:3, pH 6.0/7.4)” value is 2.61 ratio.

Regarding B6, the “Affinity ELISA CPE mutant ratio (1:3, pH 6.0/7.4)” value is 1.54 ratio.

Consider B7, for which the “Affinity ELISA CPE mutant ratio (1:3, pH 6.0/7.4)” value was found to be 1.02 ratio.

Consider B8, for which the “Affinity ELISA CPE mutant ratio (1:3, pH 6.0/7.4)” value was found to be 2.42 ratio.

As to B9, the “Affinity ELISA CPE mutant ratio (1:3, pH 6.0/7.4)” value is 2.67 ratio.

For the molecule B10, the “Affinity ELISA CPE mutant ratio (1:3, pH 6.0/7.4)” value was 1.78 ratio.

Take B11: the “Affinity ELISA CPE mutant ratio (1:3, pH 6.0/7.4)” value is 1.88 ratio.

B12: the “Affinity ELISA CPE mutant ratio (1:3, pH 6.0/7.4)” value was 2.81 ratio.

For B13, the “Affinity ELISA CPE mutant ratio (1:3, pH 6.0/7.4)” value worked out at 30.5 ratio.

Take B14: the “Affinity ELISA CPE mutant ratio (1:3, pH 6.0/7.4)” value came to 1.07 ratio.

As to B15, the “Affinity ELISA CPE mutant ratio (1:3, pH 6.0/7.4)” value was 1.84 ratio.

On to B16, for which the “Affinity ELISA CPE mutant ratio (1:3, pH 6.0/7.4)” value was found to be 2.58 ratio.

For B17, the “Affinity ELISA CPE mutant ratio (1:3, pH 6.0/7.4)” value worked out at 4.24 ratio.

For B18, the “Affinity ELISA CPE mutant ratio (1:3, pH 6.0/7.4)” value is 2.54 ratio.

B19: the “Affinity ELISA CPE mutant ratio (1:3, pH 6.0/7.4)” value was 2.17 ratio.

Consider B20, for which the “Affinity ELISA CPE mutant ratio (1:3, pH 6.0/7.4)” value was found to be 3.27 ratio.

For the molecule B21, the “Affinity ELISA CPE mutant ratio (1:3, pH 6.0/7.4)” value amounted to 1.32 ratio.

In the case of B22, the “Affinity ELISA CPE mutant ratio (1:3, pH 6.0/7.4)” value was determined as 1.4 ratio.

For B23, the “Affinity ELISA CPE mutant ratio (1:3, pH 6.0/7.4)” value amounted to 1.88 ratio.

As for B24, the “Affinity ELISA CPE mutant ratio (1:3, pH 6.0/7.4)” value was found to be 3.9 ratio.

In the case of B25, the “Affinity ELISA CPE mutant ratio (1:3, pH 6.0/7.4)” value was 2.36 ratio.

Turning to B26, the “Affinity ELISA CPE mutant ratio (1:3, pH 6.0/7.4)” value came out at 1.59 ratio.

Take B27: the “Affinity ELISA CPE mutant ratio (1:3, pH 6.0/7.4)” value is 3.7 ratio.

Regarding B28, the “Affinity ELISA CPE mutant ratio (1:3, pH 6.0/7.4)” value amounted to 7.99 ratio.

In the case of B29, the “Affinity ELISA CPE mutant ratio (1:3, pH 6.0/7.4)” value stood at 2.02 ratio.

For B30, the “Affinity ELISA CPE mutant ratio (1:3, pH 6.0/7.4)” value turned out to be 2.77 ratio.

Take B31: the “Affinity ELISA CPE mutant ratio (1:3, pH 6.0/7.4)” value was found to be 1.93 ratio.

For a further assay, the target named is T1, Axl protein. Briefly: ELISA, 1:9 dilution, pH 6.0 over pH 7.4.
Turning to B1, the “Affinity ELISA CPE mutant ratio (1:9, pH 6.0/7.4)” value stood at 1.76 ratio.

For B2, the “Affinity ELISA CPE mutant ratio (1:9, pH 6.0/7.4)” value amounted to 2.26 ratio.

For B3, the “Affinity ELISA CPE mutant ratio (1:9, pH 6.0/7.4)” value was 1.57 ratio.

B4: the “Affinity ELISA CPE mutant ratio (1:9, pH 6.0/7.4)” value came to 5.91 ratio.

Turning to B5, the “Affinity ELISA CPE mutant ratio (1:9, pH 6.0/7.4)” value came out at 1.99 ratio.

B6: the “Affinity ELISA CPE mutant ratio (1:9, pH 6.0/7.4)” value is 1.69 ratio.

On to B7, for which the “Affinity ELISA CPE mutant ratio (1:9, pH 6.0/7.4)” value is 1.93 ratio.

Consider B8, for which the “Affinity ELISA CPE mutant ratio (1:9, pH 6.0/7.4)” value was found to be 3.09 ratio.

On to B9, for which the “Affinity ELISA CPE mutant ratio (1:9, pH 6.0/7.4)” value was 2.85 ratio.

In the case of B10, the “Affinity ELISA CPE mutant ratio (1:9, pH 6.0/7.4)” value worked out at 1.81 ratio.

As for B11, the “Affinity ELISA CPE mutant ratio (1:9, pH 6.0/7.4)” value was determined as 1.36 ratio.

Take B12: the “Affinity ELISA CPE mutant ratio (1:9, pH 6.0/7.4)” value stood at 1.12 ratio.

Take B13: the “Affinity ELISA CPE mutant ratio (1:9, pH 6.0/7.4)” value was 2.06 ratio.

For B14, the “Affinity ELISA CPE mutant ratio (1:9, pH 6.0/7.4)” value was found to be 3.18 ratio.

On to B15, for which the “Affinity ELISA CPE mutant ratio (1:9, pH 6.0/7.4)” value is 1.74 ratio.

Consider B16, for which the “Affinity ELISA CPE mutant ratio (1:9, pH 6.0/7.4)” value was found to be 1.18 ratio.

On to B17, for which the “Affinity ELISA CPE mutant ratio (1:9, pH 6.0/7.4)” value is 2.23 ratio.

For the molecule B18, the “Affinity ELISA CPE mutant ratio (1:9, pH 6.0/7.4)” value is 2.42 ratio.

Consider B19, for which the “Affinity ELISA CPE mutant ratio (1:9, pH 6.0/7.4)” value stood at 2.91 ratio.

Regarding B20, the “Affinity ELISA CPE mutant ratio (1:9, pH 6.0/7.4)” value was determined as 2.7 ratio.

Turning to B21, the “Affinity ELISA CPE mutant ratio (1:9, pH 6.0/7.4)” value is 1.8 ratio.

With B22, the “Affinity ELISA CPE mutant ratio (1:9, pH 6.0/7.4)” value stood at 1.89 ratio.

As for B23, the “Affinity ELISA CPE mutant ratio (1:9, pH 6.0/7.4)” value was found to be 2.51 ratio.

On to B24, for which the “Affinity ELISA CPE mutant ratio (1:9, pH 6.0/7.4)” value was 4.54 ratio.

B25: the “Affinity ELISA CPE mutant ratio (1:9, pH 6.0/7.4)” value worked out at 2.64 ratio.

Consider B26, for which the “Affinity ELISA CPE mutant ratio (1:9, pH 6.0/7.4)” value was determined as 1 ratio.

As to B27, the “Affinity ELISA CPE mutant ratio (1:9, pH 6.0/7.4)” value stood at 3.42 ratio.

Regarding B28, the “Affinity ELISA CPE mutant ratio (1:9, pH 6.0/7.4)” value was found to be 0.932 ratio.

Take B29: the “Affinity ELISA CPE mutant ratio (1:9, pH 6.0/7.4)” value was found to be 1.7 ratio.

Regarding B30, the “Affinity ELISA CPE mutant ratio (1:9, pH 6.0/7.4)” value was found to be 3.62 ratio.

Regarding B31, the “Affinity ELISA CPE mutant ratio (1:9, pH 6.0/7.4)” value is 2.51 ratio.
